Paper PMC8008188

Target: bone sialoprotein, full length 90 kDa, of UMR106-01 osteoblastic cultures (rat (endogenous in UMR106-01)) (UniProt P13839)
Assay: co-elution on anion-exchange chromatography; EDTA extract of mineralizing UMR106-01 cultures on POROS 20 HQ in 0.05 M sodium acetate pH 5.2, 8 M urea, 0.1% CHAPS; 0 to 0.6 M NaCl gradient, then 2 M NaCl step; fractions read by dot blot and Western blot with anti-BSP and anti-6b antibodies

Chain of UniProt P13839 (P13839 17-320): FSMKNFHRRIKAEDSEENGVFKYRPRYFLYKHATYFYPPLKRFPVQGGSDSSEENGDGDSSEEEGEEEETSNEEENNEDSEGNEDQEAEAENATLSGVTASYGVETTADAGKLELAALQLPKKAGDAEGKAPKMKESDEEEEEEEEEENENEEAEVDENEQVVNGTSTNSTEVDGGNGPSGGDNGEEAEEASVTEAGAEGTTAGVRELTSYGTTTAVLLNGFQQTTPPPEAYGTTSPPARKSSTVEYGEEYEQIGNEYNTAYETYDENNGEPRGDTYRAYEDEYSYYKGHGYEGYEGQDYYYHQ

percent of the fragment co-eluting with BSP: > 80%
Substance: 60 kDa Col11a1 N-terminal domain (NTD) fragment with the “6b” exon sequence (domain or fragment)
